Where a chain is given by its changes, count along the chain named. One block for each molecule: values may come before it.
Columns and labels:
[1] = tested on: downstream signaling of the Tie2 receptor (Akt phosphorylation) in HUVECs; experiment: Akt phosphorylation in HUVECs by humanized anti-Ang2 antibodies (immunoblot); assay type: cell-based, human; details: hAng2 1 μg/ml, 30 min, antibody 0.5 μg/ml, maintained until 50 μg/ml
Procedure: To investigate whether the humanized anti-Ang2 antibodies induce the downstream signaling of the Tie2 receptor in endothelial cells, HUVECs (LONZA™) were treated with human Ang2 protein together with humanized anti-Ang2 antibody. Then, the level of Akt phosphorylation, the main downstream signaling protein of Tie2 receptor was measured by immunoblotting. To compare the degree of Akt activation, cells were treated with full-length hAng2 (R&D® Systems) alone or antibody alone in the experiment.
Specifically, HUVEC cells (1×10^5 cells/ml) were cultured in EGM-2 (LONZA™) at 37° C. in 60 mm culture dish. Cells of 90% confluency were incubated with EBM-2 (LONZA™) for 4 hrs. The serum-starved HUVECs were treated with the mixture of anti-Ang2 antibody and hAng2 protein (1 μg/ml, R&D® Systems), and further incubated for 30 min. The cells were washed with cold PBS, treated with lysis buffer, and lysed at 4° C. for 20 min. Then, the cell lysates were prepared by centrifugation at 13000 rpm for 15 min. 5× SDS sample buffer was added to the cell lysate and the mixture was boiled at 95° C. for 5 min. Then, the mixture was subjected to SDS-PAGE and subsequent Western blotting.
To investigate the phosphorylation of Akt, the membrane was blocked with 5% skim milk-containing TBST for 1 hr at RT, and incubated with anti-phospho-Akt antibody (S473) at 4° C. for about 8 hrs. […]

Tie2 receptor = experiment: Tie2 phosphorylation in HUVECs (immunoprecipitation/Western); assay type: cell-based, human; details: antibody 0.02-50 μg/ml with hAng2 1 μg/ml, 30 min
Procedure: Ang2 binds to the Tie2 receptor and acts as a weak agonist or antagonist. The anti-Ang2 antibody developed in this invention binds to Ang2 to induce Ang2-antibody complexes, further causing clustering of Tie2 receptors and consequently enhancing activation of Tie2 receptor. Experiments were conducted to analyze the effect of anti-Ang2 antibody on Tie2 phosphorylation using HUVECs.
Specifically, HUVECs (LONZA™) were cultured in EGM-2 (LONZA™) at 37° C. and 5% CO2 concentration in a 100 mm culture dish. At 80-90% confluency, the cells were changed to EBM-2 (LONZA™) medium for 2 hrs˜ 6 hrs for serum starvation. Humanized anti-Ang2 antibodies at various concentrations (0.02 μg/ml to 50 μg/ml) were mixed with hAng2 protein (1 μg/ml, R&D® Systems) for 30 min. Then, the mixtures were treated with the cultured cells and further incubated for 30 min. The cells were washed twice with cold PBS and then lysed in 1000 μl of lysis buffer (10 mM Tris-Cl pH 7.4, 150 mM NaCl, 5 mM EDTA, 10% glycerol, 1% TRITON™ X-100 (non-ionic polyoxyethylene surfactant), protease inhibitor, phosphatase inhibitor) and then lysed at 4° C. for 60 min. Cell extracts were prepared and centrifuged at 12,000 rpm for 10 min. The supernatant was quantitated by bicinchoninic (BCA) assay.
To 0.5 mg of cell lysate, 1 μg of Tie2 antibody (R&D® Systems, AF313) was added and incubated overnight at 4° C. […]

[2] = tested on: Tie2 receptor clustering / FOXO1 translocation in HUVECs; experiment: Tie2 clustering and FOXO1 translocation in HUVECs (immunofluorescence); assay type: cell-based, human; details: HUVECs, 30 min
Procedure: Tie2 clustering at cell-cell junction area and FOXO1 translocation from nucleus to cytosol by anti-Ang2 antibodies were examined in HUVECs by immunofluorescence. Specifically, HUVECs were seeded on 8 well slide chamber (Lab-Tek™ II) and maintained in EGM-2 medium for 2-3 days. At 100% confluence, the cells were serum starved with EBM-2 medium for 4 hrs and then treated with 1 μg/ml anti-Ang2 antibodies together with 1 μg/ml of hAng2 for 30 min. Thereafter, the cells were fixed with 4% formaldehyde in PBS at room temperature (RT) for 10 min, permeabilized with 0.1% TRITON™ X-100 (non-ionic polyoxyethylene surfactant) in PBS, blocked with 1% BSA in PBS at RT for 60 min, and incubated with primary antibodies at RT for 1 hr. The primary antibodies for hTie2, FOXO1, and Human Fc were used. The cells were then incubated with secondary antibodies (Invitrogen) in the dark at RT for 1 hr and mounted with VECTASHIELD® mounting medium with DAPI (Vector Labs, antifade mounting media optimized for immunofluorescence applications). Images were taken with a laser scanning confocal microscope (LSM880, Carl Zeiss).
2C8H11-induced Tie2 clustering and FOXO1 translocation was examined in a time-course study (from 10 min to 240 min). […] 6-4: Inhibition of Vascular Permeability by Humanized Anti-Ang2 Antibodies

HUVEC monolayer = experiment: In vitro vascular permeability (leakage) assay, TNF-α induced, FITC-dextran; assay type: cell-based, human; details: HUVECs; pre-treatment antibody 1 μg/ml with Ang2 1 μg/ml 30 min; TNF-α 100 ng/ml 22 hr
Procedure: Vascular leakage assay was carried out in HUVECs using In Vitro Vascular Permeability Assay Kit (Millipore®) according to the manufacturer's instruction. HUVECs were seeded into the insert of the transwell plate and cultured for 3 days for 100% confluence. The HUVECs were pre-incubated with Ang2 (1 μg/ml), Ang2 (1 μg/ml) together with Control, 2C8H11 or 4B9H11 antibody (1 μg/ml) for 30 min, and then TNF-α (100 ng/ml) was added, and the cells were incubated at 37° C. for 22 hr. FITC-dextran was added to the upper chamber and incubated for 20 min. Passage of FITC-dextran though the HUVEC monolayer was measured by a fluorescence reader at excitation and emission wavelengths of 485 and 535 nm, respectively.

hAng2 [3] = molecular target: T1, hAng2 (Homo sapiens, UniProt O15123); experiment: OCTET affinity of humanized anti-Ang2 antibodies against hAng2; assay type: binding; details: humanized 4B9 antibodies (IgG1) fixed on AR2G biosensor; hAng2 50-0 nM
T1 sequence (O15123 19-496): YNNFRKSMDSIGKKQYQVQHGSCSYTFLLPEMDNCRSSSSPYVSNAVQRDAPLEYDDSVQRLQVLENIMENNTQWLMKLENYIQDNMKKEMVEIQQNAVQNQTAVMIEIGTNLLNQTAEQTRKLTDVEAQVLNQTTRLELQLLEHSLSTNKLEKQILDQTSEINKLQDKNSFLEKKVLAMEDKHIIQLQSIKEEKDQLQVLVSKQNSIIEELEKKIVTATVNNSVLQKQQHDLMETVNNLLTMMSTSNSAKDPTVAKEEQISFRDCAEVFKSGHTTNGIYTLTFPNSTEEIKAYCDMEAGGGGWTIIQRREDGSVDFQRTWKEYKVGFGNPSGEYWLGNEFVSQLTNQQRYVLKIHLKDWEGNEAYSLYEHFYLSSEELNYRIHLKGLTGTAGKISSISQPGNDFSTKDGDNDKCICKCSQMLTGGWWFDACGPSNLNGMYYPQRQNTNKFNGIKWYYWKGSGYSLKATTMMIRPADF

[4] = tested on: downstream signaling of the Tie2 receptor (Akt phosphorylation) in HUVECs; experiment: Akt phosphorylation in HUVECs by mouse anti-Ang2 antibodies plus hAng2 (immunoblot); assay type: cell-based, human; details: serum-starved HUVECs; antibody combined with hAng2 1 μg/ml; 30 min
Procedure: To investigate whether the mouse anti-Ang2 antibodies induce the downstream signaling of the Tie2 receptor in endothelial cells, HUVECs (LONZA™) were treated with a combination of hAng2 protein and anti-Ang2 antibody, and then the level of Akt phosphorylation, the main downstream signaling protein of Tie2 receptor, was analyzed by immunoblotting. As a negative control group, the full-length hAng2 (R&D® Systems) alone was treated into the cells.
Specifically, HUVECs (1×10^5 cells/ml) were cultured in EGM-2 medium (LONZA™) at 37° C. in a 60 mm culture dish. Cells (90% confluency) were incubated with serum-free EBM-2 medium for 4 hrs for serum starvation. The serum-starved HUVECs were treated with a mixture of anti-Ang2 antibody and hAng2 protein (1 μg/ml, R&D® Systems) and further incubated for 30 min. The cells were washed with cold PBS, treated with lysis buffer, and lysed at 4° C. for 20 min. Then, the cell lysates were prepared by centrifugation at 13000 rpm for 15 min. 5× SDS sample buffer was added to the cell lysate and the cell lysate was boiled at 95° C. for 5 min. Then, the cell lysate was subjected to SDS PAGE and proteins were transferred to a nitrocellulose membrane (GE).
To investigate Akt phosphorylation, the blot was blocked with 5% skim milk-containing TBS-T for 1 hr at room temperature (RT), and incubated with anti-phospho-Akt antibody (S473) at 4° C. for about 8 hrs. The amount of phospho-Akt was visualized by an enhanced chemiluminescence (ECL). Then, the membrane was incubated in a stripping buffer (Thermo) for 15 min, and then reprobed with an anti-Akt antibody to determine the amount of total Akt.

hAng2 [5] = molecular target: T1, hAng2; experiment: OCTET affinity of mouse monoclonal anti-Ang2 antibodies against hAng2; details: hAng2 fixed on AR2G biosensor, 1:1 binding model
Procedure: The affinity of mouse monoclonal antibody against hAng2 was measured using OCTET® system (ForteBio, real-time, label-free bio-layer interferometry system for determination of affinity, kinetics, and concentration). Specifically, buffer and samples were measured in total 200 μl/well using Black 96-well plates (96 well F-type black plates, Greiner). The biosensor used for affinity measurements was hydrated for 10 min before measurement with AR2G tip (ForteBio OCTET®). After the hydration, hAng2 was diluted in 10 mM sodium acetate, pH 6.0 buffer at a concentration of 10 μg/ml, fixed on AR2G biosensor, and blocked with 1M ethanolamine. The mouse monoclonal anti-Ang2 antibodies were diluted to 50, 25, 12.5, 6.25, 3.125, and 0 nM with 1× kinetic buffer, and subjected to association for 300 seconds and dissociation for 900 seconds. For affinity measurement (KD), the association rate (K-on) and dissociation rate (K-off) were analyzed by binding curve (global) and fitted to 1:1 binding model using OCTET® data analysis v9.0.0.10 program.

- Akt phosphorylation [1]: increased markedly
- FOXO1 translocation from nucleus to cytosol ([2]; compared to serum-starved control): markedly disappeared in nucleus
- Kdis (hAng2 [3]): 1.58e-06 s⁻¹
- Kon (hAng2 [3]): 92900 M⁻¹ s⁻¹
B1: 4B9H11: humanized anti-Ang2 human IgG1 antibody from mouse 4B9; VH SEQ ID NO: 43, VL SEQ ID NO: 44 (antibody, V domains shown)
VH: QVQLVESGGGLVKPGGSLRLSCAASGFTFSDYYMYWIRQAPGKGLEWVSTISVGGSFTYYPDSVKGRFTISRDNAKNSLYLQMNSLRAEDTAVYYCARDWGLRPWFVYWGQGTLVTVSS
VL: DIQMTQSPSSLSASVGDRVTITCKASQDVSTAVAWYQQKPGKAPKLLIYWASTRHTGVPSRFSGSGSGTDFTLTISSLQPEDFATYYCQQHYSTPPTFGQGTKVEIK
modifications: human IgG1 constant regions; VH; VL
- phosphorylation of Tie2 (Tie2 receptor): strongly induced in a dose-dependent manner
- co-localization of antibody with Tie2 receptor ([2]; anti-human Fc staining): co-localized with clustered Tie2 receptor at cell-cell contact and endocytosed Tie2 receptor in cytosol
- Tie2 translocation/clustering to cell-cell contact ([2]; antibodies 1 μg/ml with hAng2 1 μg/ml): induced Tie2 translocation/clustering to cell-cell contact
- vascular leakage induced by TNF-α (passage of FITC-dextran) (HUVEC monolayer): significantly inhibited

- Akt phosphorylation at S473 [4]: strongly induced
- Koff (hAng2 [5]): 1.71e-05 s⁻¹
- Kon (hAng2 [5]): 124000 M⁻¹ s⁻¹
B2: 2F10: mouse monoclonal anti-Ang2 antibody; VH SEQ ID NO: 29, VL SEQ ID NO: 31 (antibody, V domains shown)
VH: QVQLVESGGGLVKPGGSLKLSCAASGFTFSDYYMYWIRQTPEKRLEWVATINDGGSYTYYPDSVKGRFTISRDNAKNNLYLQMSSLKSEDTAMYYCARDWGLRPWFVYWGQGTLVTVSA
VL: DIVMTQSHKFMSTSVGDRVSITCKASQDVSTAVAWYQQKPGQSPKLLIYWASTRHTGVPDRFTGSGSGTDYTLTISSVQAEDLALYYCQQHYTTPPTFGSGTKLEIK
modifications: Heavy Chain Variable Region; Light Chain Variable Region

- Akt phosphorylation at S473 [4]: strongly induced
- Koff (hAng2 [5]): 0.000134 s⁻¹
- Kon (hAng2 [5]): 28300 M⁻¹ s⁻¹
B3: 4E2: mouse monoclonal anti-Ang2 antibody; VH SEQ ID NO: 39, VL SEQ ID NO: 41 (antibody, V domains shown)
VH: EVQLQQSGPELEKPGASVKISCKASGYSFTGYNMNWVKQSNGKSLEWIGNIDPYYGGTSYNQKFKGKATLTVDKSSSTAYMQLKSLTSEDSAVYYCVRYGNYVDYWGQGTTLTVSS
VL: B2 VL with T93N
modifications: Heavy Chain Variable Region; Light Chain Variable Region

From patent US12331106B2, “Anti-angiopoietin-2 antibodies that induce Tie2 activation” (Institute for Basic Science, priority 2018, dated 2025)
